Experiment [1] has as its target Strep-tagged ACDC domain of PvAP2-I (residues 30-180) (P. vivax). Nature of the experiment: thermal shift assay.
In experiment [2] the target is His-tagged PvBDP1 ankyrin domain (fragment 1-220) (P. vivax). Nature of the experiment: thermal shift assay.

As for “synthetic peptide corresponding to PvBDP1 BAAS (residues 275-296)”, in experiment [1], the Tm of the ACDC domain with peptide at a 1:10 molar ratio (61.1°C alone) stood at 60.1 °C and the Tm of the ACDC domain with peptide at a 1:40 molar ratio (61.1°C alone) was 59.8 °C.

As for “synthetic peptide corresponding to the α3 helix of ASAIR of PvAP2-I (residues 280-310)”, in experiment [2], the Tm of the ankyrin domain with peptide at a 1:10 molar ratio (50.0°C alone) amounted to 50.7 °C and the Tm of the ankyrin domain with peptide at a 1:40 molar ratio (50.0°C alone) amounted to 51.2 °C.
